# Like-named read-outs stand apart in the source and are kept apart here.
# B1: SRSF9 (protein, UniProt Q13242 1-221, looked up)
# Serine/arginine-rich splicing …: MSGWADERGGEGDGRIYVGNLPTDVREKDLEDLFYKYGRIREIELKNRHGLVPFAFVRFEDPRDAEDAIYGRNGYDYGQCRLRVEFPRTYGGRGGWPRGGRNGPPTRRSDFRVLVSGLPPSGSWQDLKDHMREAGDVCYADVQKDGVGMVEYLRKEDMEYALRKLDDTKFRSHEGETSYIRVYPERSTSYGYSRSRSGSRGRDSPYQSRGSPHYFSPFRPY
# B2: RPUSD3 (protein, UniProt Q6P087 26-351, looked up)
# Mitochondrial mRNA …: LGVRPVPEDAGFGTEARHQRQPRGSCQRSGPLGDQPFAGLLPKNLSREELVDALRAAVVDRKGPLVTLNKPQGLPVTGKPGELTLFSVLPELSQSLGLREQELQVVRASGKESSGLVLLSSCPQTASRLQKYFTHARRAQRPTATYCAVTDGIPAASEGKIQAALKLEHIDGVNLTVPVKAPSRKDILEGVKKTLSHFRVVATGSGCALVQLQPLTVFSSQLQVHMVLQLCPVLGDHMYSARVGTVLGQRFLLPAENNKPQRQVLDEALLRRLHLTPSQAAQLPLHLHLHRLLLPGTRARDTPVELLAPLPPYFSRTLQCLGLRLQ
# B3: PURB (protein, UniProt Q96QR8 2-312, looked up)
# Transcriptional regulator …: ADGDSGSERGGGGGPCGFQPASRGGGEQETQELASKRLDIQNKRFYLDVKQNAKGRFLKIAEVGAGGSKSRLTLSMAVAAEFRDSLGDFIEHYAQLGPSSPEQLAAGAEEGGGPRRALKSEFLVRENRKYYLDLKENQRGRFLRIRQTVNRGGGGFGAGPGPGGLQSGQTIALPAQGLIEFRDALAKLIDDYGGEDDELAGGPGGGAGGPGGGLYGELPEGTSITVDSKRFFFDVGCNKYGVFLRVSEVKPSYRNAITVPFKAWGKFGGAFCRYADEMKEIQERQRDKLYERRGGGSGGGEESEGEEVDED
# B4: SYNCRIP: host protein, UniProt O60506 (protein, UniProt O60506 2-623, looked up)
# Heterogeneous nuclear …: ATEHVNGNGTEEPMDTTSAVIHSENFQTLLDAGLPQKVAEKLDEIYVAGLVAHSDLDERAIEALKEFNEDGALAVLQQFKDSDLSHVQNKSAFLCGVMKTYRQREKQGTKVADSSKGPDEAKIKALLERTGYTLDVTTGQRKYGGPPPDSVYSGQQPSVGTEIFVGKIPRDLFEDELVPLFEKAGPIWDLRLMMDPLTGLNRGYAFVTFCTKEAAQEAVKLYNNHEIRSGKHIGVCISVANNRLFVGSIPKSKTKEQILEEFSKVTEGLTDVILYHQPDDKKKNRGFCFLEYEDHKTAAQARRRLMSGKVKVWGNVGTVEWADPIEDPDPEVMAKVKVLFVRNLANTVTEEILEKAFSQFGKLERVKKLKDYAFIHFDERDGAVKAMEEMNGKDLEGENIEIVFAKPPDQKRKERKAQRQAAKNQMYDDYYYYGPPHMPPPTRGRGRGGRGGYGYPPDYYGYEDYYDYYGYDYHNYRGGYEDPYYGYEDFQVGARGRGGRGARGAAPSRGRGAAPPRGRAGYSQRGGPGSARGVRGARGGAQQQRGRGVRGARGGRGGNVGGKRKADGYNQPDSKRRQTNNQNWGSQPIAQQPLQGGDHSGNYGYKSENQEFYQDTFGQQWK
# B5: CHTOP (protein, UniProt Q9Y3Y2 2-248, looked up)
# Chromatin target of PRMT1 …: AAQSAPKVVLKSTTKMSLNERFTNMLKNKQPTPVNIRASMQQQQQLASARNRRLAQQMENRPSVQAALKLKQSLKQRLGKSNIQARLGRPIGALARGAIGGRGLPIIQRGLPRGGLRGGRATRTLLRGGMSLRGQNLLRGGRAVAPRMGLRRGGVRGRGGPGRGGLGRGAMGRGGIGGRGRGMIGRGRGGFGGRGRGRGRGRGALARPVLTKEQLDNQLDAYMSKTKGHLDAELDAYMAQTDPETND
# B6: UBAP2L (protein, UniProt Q14157 1-1087, looked up)
# Ubiquitin-associated protein …: MMTSVGTNRARGNWEQPQNQNQTQHKQRPQATAEQIRLAQMISDHNDADFEEKVKQLIDITGKNQDECVIALHDCNGDVNRAINVLLEGNPDTHSWEMVGKKKGVSGQKDGGQTESNEEGKENRDRDRDYSRRRGGPPRRGRGASRGREFRGQENGLDGTKSGGPSGRGTERGRRGRGRGRGGSGRRGGRFSAQGMGTFNPADYAEPANTDDNYGNSSGNTWNNTGHFEPDDGTSAWRTATEEWGTEDWNEDLSETKIFTASNVSSVPLPAENVTITAGQRIDLAVLLGKTPSTMENDSSNLDPSQAPSLAQPLVFSNSKQTAISQPASGNTFSHHSMVSMLGKGFGDVGEAKGGSTTGSQFLEQFKTAQALAQLAAQHSQSGSTTTSSWDMGSTTQSPSLVQYDLKNPSDSAVHSPFTKRQAFTPSSTMMEVFLQEKSPAVATSTAAPPPPSSPLPSKSTSAPQMSPGSSDNQSSSPQPAQQKLKQQKKKASLTSKIPALAVEMPGSADISGLNLQFGALQFGSEPVLSDYESTPTTSASSSQAPSSLYTSTASESSSTISSNQSQESGYQSGPIQSTTYTSQNNAQGPLYEQRSTQTRRYPSSISSSPQKDLTQAKNGFSSVQATQLQTTQSVEGATGSAVKSDSPSTSSIPPLNETVSAASLLTTTNQHSSSLGGLSHSEEIPNTTTTQHSSTLSTQQNTLSSSTSSGRTSTSTLLHTSVESEANLHSSSSTFSTTSSTVSAPPPVVSVSSSLNSGSSLGLSLGSNSTVTASTRSSVATTSGKAPPNLPPGVPPLLPNPYIMAPGLLHAYPPQVYGYDDLQMLQTRFPLDYYSIPFPTPTTPLTGRDGSLASNPYSGDLTKFGRGDASSPAPATTLAQPQQNQTQTHHTTQQTFLNPALPPGYSYTSLPYYTGVPGLPSTFQYGPAVFPVAPTSSKQHGVNVSVNASATPFQQPSGYGSHGYNTGVSVTSSNTGVPDISGSVYSKTQQSFEKQGFHSGTPAASFNLPSALGSGGPINPATAAAYPPAPFMHILTPHQQPHSQILHHHLQQDGQTGSGQRSQTSSIPQKPQTNKSAYNSYSWGAN
# B7: DHX30 (protein, UniProt Q7L2E3 1-1194, looked up)
# ATP-dependent RNA helicase …: MFSLDSFRKDRAQHRQRQCKLPPPRLPPMCVNPTPGGTISRASRDLLKEFPQPKNLLNSVIGRALGISHAKDKLVYVHTNGPKKKKVTLHIKWPKSVEVEGYGSKKIDAERQAAAAACQLFKGWGLLGPRNELFDAAKYRVLADRFGSPADSWWRPEPTMPPTSWRQLNPESIRPGGPGGLSRSLGREEEEDEEEELEEGTIDVTDFLSMTQQDSHAPLRDSRGSSFEMTDDDSAIRALTQFPLPKNLLAKVIQIATSSSTAKNLMQFHTVGTKTKLSTLTLLWPCPMTFVAKGRRKAEAENKAAALACKKLKSLGLVDRNNEPLTHAMYNLASLRELGETQRRPCTIQVPEPILRKIETFLNHYPVESSWIAPELRLQSDDILPLGKDSGPLSDPITGKPYVPLLEAEEVRLSQSLLELWRRRGPVWQEAPQLPVDPHRDTILNAIEQHPVVVISGDTGCGKTTRIPQLLLERYVTEGRGARCNVIITQPRRISAVSVAQRVSHELGPSLRRNVGFQVRLESKPPSRGGALLFCTVGILLRKLQSNPSLEGVSHVIVDEVHERDVNTDFLLILLKGLQRLNPALRLVLMSATGDNERFSRYFGGCPVIKVPGFMYPVKEHYLEDILAKLGKHQYLHRHRHHESEDECALDLDLVTDLVLHIDARGEPGGILCFLPGWQEIKGVQQRLQEALGMHESKYLILPVHSNIPMMDQKAIFQQPPVGVRKIVLATNIAETSITINDIVHVVDSGLHKEERYDLKTKVSCLETVWVSRANVIQRRGRAGRCQSGFAYHLFPRSRLEKMVPFQVPEILRTPLENLVLQAKIHMPEKTAVEFLSKAVDSPNIKAVDEAVILLQEIGVLDQREYLTTLGQRLAHISTDPRLAKAIVLAAIFRCLHPLLVVVSCLTRDPFSSSLQNRAEVDKVKALLSHDSGSDHLAFVRAVAGWEEVLRWQDRSSRENYLEENLLYAPSLRFIHGLIKQFSENIYEAFLVGKPSDCTLASAQCNEYSEEEELVKGVLMAGLYPNLIQVRQGKVTRQGKFKPNSVTYRTKSGNILLHKSTINREATRLRSRWLTYFMAVKSNGSVFVRDSSQVHPLAVLLLTDGDVHIRDDGRRATISLSDSDLLRLEGDSRTVRLLKELRRALGRMVERSLRSELAALPPSVQEEHGQLLALLAELLRGPCGSFDVRKTADD
# B8: HNRNPC (protein, UniProt P07910 2-306, looked up)
# Heterogeneous nuclear …: ASNVTNKTDPRSMNSRVFIGNLNTLVVKKSDVEAIFSKYGKIVGCSVHKGFAFVQYVNERNARAAVAGEDGRMIAGQVLDINLAAEPKVNRGKAGVKRSAAEMYGSVTEHPSPSPLLSSSFDLDYDFQRDYYDRMYSYPARVPPPPPIARAVVPSKRQRVSGNTSRRGKSGFNSKSGQRGSSKSGKLKGDDLQAIKKELTQIKQKVDSLLENLEKIEKEQSKQAVEMKNDKSEEEQSSSSVKKDETNVKMESEGGADDSAEEGDLLDDDDNEDRGDDQLELIKDDEKEAEEGEDDRDSANGEDDS
# Key:
# Assay type in all cases: binding
# SARS-CoV-2 gRNA = conditions: […]; LC-MS/MS; Probe I sample (first 199 lines of Table 2)
# gRNA of HCoV-OC43 = conditions: type n_48_v: 48 hours post-infection; for target (spectral count, OC43 Probe I RNP capture): infected cells, unweighted spectral count; for background (spectral count, no-probe control): no-probe control on infected cells
# HCoV-OC43 gRNA and sgRNA = conditions: for target (unweighted spectral count, OC43 Probe II) / background (unweighted spectral count, no-probe control): type n_48_v, 48 hpi; for target (unweighted spectral count, OC43 Probe II): OC43 Probe II capture on infected cells; for background (unweighted spectral count, no-probe control): no-probe control on infected cells; for target (unweighted spectral count, OC43 Probe II capture): type n_36_v, FDR<10%; for target (unweighted spectral count, OC43 Probe II capture) / target (unweighted spectral count): tested against no-probe control; for target (unweighted spectral count): OC43 Probe II, infected cells
# [1] = system: SARS-CoV-2 gRNA and sgRNAs; conditions: for target (unweighted spectral count of the protein in the RNP capture experiment): LC-MS/MS label-free quantification, probe pool not given; for back-ground (unweighted spectral count of the protein in the control experiment): protein background of the control (e.g. no-probe) experiment; for target (unweighted spectral count in RNP capture): Probe II capture, LC-MS/MS LFQ; for background (unweighted spectral count in control): no-probe control pull-down, used as background for Probe II
Molecule,target (unweighted spectral count of the protein in the RNP capture) (SARS-CoV-2 gRNA),"target (spectral count, OC43 Probe I RNP capture) (gRNA of HCoV-OC43)","background (spectral count, no-probe control) (gRNA of HCoV-OC43)","target (unweighted spectral count, OC43 Probe II) (HCoV-OC43 gRNA and sgRNA)","background (unweighted spectral count, no-probe control) (HCoV-OC43 gRNA and sgRNA)",target (unweighted spectral count of the protein in the RNP capture experiment) [1],back-ground (unweighted spectral count of the protein in the control experiment) [1],"target (unweighted spectral count, OC43 Probe II capture) (HCoV-OC43 gRNA and sgRNA; 36 hpi)",target (unweighted spectral count) (HCoV-OC43 gRNA and sgRNA; 12 hpi (type n_12_v)),target (unweighted spectral count) (HCoV-OC43 gRNA and sgRNA; 24 hpi (type n_24_v)),"target (spectral count) (HCoV-OC43 gRNA and sgRNA; type s_36_m, HCoV-OC43-infected HCT-8 cells, 36 hpi, Probe II)","background (spectral count) (HCoV-OC43 gRNA and sgRNA; type s_36_m, uninfected-probe control, 36 hpi, Probe II)",target (unweighted spectral count in RNP capture) [1],background (unweighted spectral count in control) [1]
B1,6,,,,,,,,,,,,,
B2,7,,,,,,,,,,,,,
B3,,5,1,5,1,5,1,,,,,,,
B4,,88,7,87,7,,,97,33,55,97,23,159,1
B5,,6,1,6,1,5,1,5,,,,,,
B6,,6,1,,,,,5,,,,,17,1
B7,13,,,,,,,,,,,,,
B8,,,19,88,19,,,69,30,40,,,75,2

# From US20230407373A1 (priority 2020, published 2023)
